The values below come from the nanobody polyreactivity screen of Harvey et al. (2022).

This data set can be described thus: yeast display, Sf9 membrane polyspecificity reagent, FACS + sequencing; frameworks hold sequencing errors. The method in brief:
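Nanobodies from a synthetic yeast display library (Saccharomyces cerevisiae BJ5465), induced 36–48 hours with galactose, were stained 1 hour at 4 °C with 10% biotinylated, detergent-solubilized Sf9 membrane reagent, enriched on streptavidin microbeads, then FACS-sorted. Anti-HA (expression) and streptavidin (reagent binding) fluorescence set low and high (top ~1%) gates. Polyreactivity labels come from the gate of origin. Genes were colony-PCR amplified, MiSeq 2 × 250 sequenced and filtered by CDR length.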
For “QVQLVESGGGLVQAGGSLRLSCAASGSILVPYAMGWYRQAPGKERELVAAISIRTGSTYYADSVKGRFTISRDNAKNTVYLQMNSLKPEDTAVYYCNAAHRKPYTGLNYWGQGTQVTVSS”, the “polyreactivity (PSR sort gate)” value was “high polyreactivity”. The same measure for “QVQLVESGGGLVQAGGSLRLSCAASGSILVPYSMGWYRQAPGKERELVAAISWGGGSTYYADSVKGRFTISRDNAKNTVYLQMNSLKPEDTAVYYCAADFGYYDYDYWGQGTQVTVSS”: “low polyreactivity”; for “QVQLVESGGGLVQAGGSLRLSCAASGSILVYYAMGWYRQAPGKEREFVAAITRSGGSTYYADSVKGRFTISRDNAKNTVYLQMNSLKPEDTAVYYCNARDVVWKRFTRYDFWGQGTQVTVSS”: “high polyreactivity”. The value for “QVQLVESGGGLVQAGGSLRLSCAASGSILWHNAKGWYRQAPGKEREFVAAISARGTRTYYADSVKGRFTISRDNAKNSVYLQMNSLKPEDTAVYYCAARYWDDRARAEDYWGQGTQVTVSS” was “high polyreactivity”. With “QVQLVESGGGLVQAGGSLRLSCAASGSILWHNAMGCYRQAPGKEREFVAAISARGTRTYYADSVKGRFTISRDNAKITVYLQMNSLKPEDTAVDYCAARYWDDRARAEDYWGQGTQVTVSS”, the “polyreactivity (PSR sort gate)” value is on record as “high polyreactivity”. As to “QVQLVESGGGLVQAGGSLRLSCAASGSILYANAMGWYRQAPGKERELVAAISARGTSTYYADSVKGRFTISRDNAKNTVYLQMNSLKPEDTAVYYCATGRKNAAQRWGYYYWGQGTQVTVSS”, the “polyreactivity (PSR sort gate)” value is given as “high polyreactivity”. Regarding “QVQLVESGGGLVQAGGSLRLSCAASGSILYFNAMGLYRQAPGKERELVATITSGGSTNYADSVKWRFTISRDNAKNTVYLQMNSQKPEDTAVYYSAADYSTRKADYWVQGTQVTVSS”, the “polyreactivity (PSR sort gate)” value was “low polyreactivity”.

As to “QVQLVESGGGLVQAGGSLRLSCAASGSILYGNDMGWYRQAPGKERELVATITSSDSTYYADSVKGRFTISRDNAKNTVYLQMNSLKPEDTAVYYCAADSSEWLLKDDYWGQGTQVTVSS”, the “polyreactivity (PSR sort gate)” value is on record as “low polyreactivity”. Regarding “QVQLVESGGGLVQAGGSLRLSCAASGSILYHYAMGWYRQAPGKERELVAGISWRGGSTYYADSVKGRFTISRDNAMNTVYLQMNSLKPEDTAVYYCATLRYPYRFYAFQYYYWGQGTQVTVSS”, the “polyreactivity (PSR sort gate)” value is “low polyreactivity”. In the case of “QVQLVESGGGLVQAGGSLRLSCAASGSILYPYAMGWYRQAPGKERELVAAIRSRGGSTYYADSVKGRFTISRDNAKNTGYLQMNSLKPEDTAVYYCAAGSTRARFDYWGQGTQVTVSS”, the “polyreactivity (PSR sort gate)” value is reported as “high polyreactivity”. For “QVQLVESGGGLVQAGGSLRLSCAASGSILYRNAMGWYRQAPGKERELVAAITYSGARTYYADSVKGRFTISRDNAKNSVYLQMNSLKPEDTAVYYCAATAAGYWYSAYDYWGQGTQVTVSS”, the “polyreactivity (PSR sort gate)” value is reported as “low polyreactivity”. On to “QVQLVESGGGLVQAGGSLRLSCAASGSILYYNAMGWYRQAHGKERELVAAISTRGGSTYYADSVKGRFTISRDNAKNTVYLQMNSLKPEDTAVYYCAADHNVIWGYYYWGQGTQVTVSS”, for which the “polyreactivity (PSR sort gate)” value is “high polyreactivity”. On to “QVQLVESGGGLVQAGGSLRLSCAASGSILYYNAMGWYRQAPGKERELVAAITSGGSTYADSVKGRFTISRDNAKNTFYLQMNCLKPEDTAVYYCAADLYWYLSDYGTTLEHDYWGQGTQVTVSS”, for which the “polyreactivity (PSR sort gate)” value is “low polyreactivity”. In the case of “QVQLVESGGGLVQAGGSLRLSCAASGSILYYNAMGWYRQAPGKERELVAGIRSSGGSTYYADSVKGRFTISRDTAKNTVYLQMNSLKPEDTAVYYCAKRTYWRRGWGFDYWGQGTQVTVSS”, the “polyreactivity (PSR sort gate)” value is given as “high polyreactivity”. For the sequence “QVQLVESGGGLVQAGGSLRLSCAASGSILYYYAMGWYRQAPGKERELVAAISSSGGRTYYADSVKGRFTISRDNAKNTVYLQMNSLKPEDTAVYYCAATNRRQPYKDREDYWGQGTQVTVSS”, the “polyreactivity (PSR sort gate)” value was “high polyreactivity”. With “QVQLVESGGGLVQAGGSLRLSCAASGSINVRYAMGWYRQAPGKERELVAAISWSGGRTYYADSVKGRFTISRDNAKNTVYLQMNSLKPEDTAVYYCAADSSVRYRDTEDYWGQGTQVTVSS”, the “polyreactivity (PSR sort gate)” value is “low polyreactivity”. As for “QVQLVESGGGLVQAGGSLRLSCAASGSIRHNTMGWYRQAPGKEREFVASISKRGGSTYYADSVKGRFTISRDNAKNTVYLQMNSLKPEYTAVYYCNAGAVTFVGRDYWGQGTQVTVSS”, the “polyreactivity (PSR sort gate)” value is listed as “high polyreactivity”.

Take “QVQLVESGGGLVQAGGSLRLSCAASGSIRSYAMGWYRQAPGKERELVAAITRSGGSTYYADSVKGLFTISRDNAKNTVYLQMNSLKPEDTAVYYCAARYTYSYPLFGSWGQGTQVTVSS”: the “polyreactivity (PSR sort gate)” value is given as “high polyreactivity”. Consider “QVQLVESGGGLVQAGGSLRLSCAASGSIRSYAMGWYRQAPGKERELVAAITRSGGSTYYADSVKGRFTISRDNAKNTVYLQMNSLKPEDTADYYCGARSTYSYPLFGSWGQGTQVTVSS”, for which the “polyreactivity (PSR sort gate)” value was “high polyreactivity”. The value for “QVQLVESGGGLVQAGGSLRLSCAASGSIRYYAMGWYRQAPGKERELVAAISSRGTNTYYADSVKGRFTISRDNAKNTVYLQMNSLKPEDTAVYYCNAVVGLGYNYWGQGTQVTVSS” was “high polyreactivity”; that for “QVQLVESGGGLVQAGGSLRLSCAASGSISAGNAMGWYRQAPGKERDLVAAISGSGGSTYYADSVKGRFTISRYNAKNTVYLQMNRLKPEDTAVYYCAARGGYRLRYIPYVRYDYWGQGTQVTVSS” was “high polyreactivity”.

As for “QVQLVESGGGLVQAGGSLRLSCAASGSISASYAMGWYRQAPGKERELVAAITSGGSTYYADSVKGRFTISRDNAKNTVYLQMNSLKPEDTAVYYCAKRPKRTYYPHIGYDYWGQGTQVTVSS”, the “polyreactivity (PSR sort gate)” value is listed as “low polyreactivity”. For the sequence “QVQLVESGGGLVQAGGSLRLSCAASGSISAVNAMGWYRQAPGKERELVAAITYSGGSTYYADSVKGRFTISRDHAQNTVYLQINSLKPEDTAVYNCAARARYPNWTYYYWGQGTQVTVSS”, the “polyreactivity (PSR sort gate)” value is “high polyreactivity”. The value for “QVQLVESGGGLVQAGGSLRLSCAASGSISDVYTMGWYRQAPGKERELVAANSFSGDSTYYADSVKGRFTISRDNAKNTVYLQMNSLKPEDTAVYYCATDVGYVYGYYYWGQGTQVTVSS” was “low polyreactivity”; that for “QVQLVESGGGLVQAGGSLRLSCAASGSISFLYTMGWYRQAPGKERELVAAITGSTASTYYADSVKGRFTISRDNAKNTVYLQMNSLKPEDTAVYYCNADSYPGLNPDFDYWGQGTQVTVSS” was “low polyreactivity”. The value for “QVQLVESGGGLVQAGGSLRLSCAASGSISFRYAMGWYRQAPGKDRELVAAITSGGGTTYYADSVKGRFTISRDNAKNTVYLQMNSMKPEDTAVYYCAKPRARQAFDYWGQGTQVTVSS” was “high polyreactivity”; that for “QVQLVESGGGLVQAGGSLRLSCAASGSISFSNAMGWYRQAPGKERELVASITSGGSTKYADSVKGRFTISRDNAKNTVFLQMNSLKPEDTAVFYCAADGYDYWGQGTQVTVSS” was “low polyreactivity”; that for “QVQLVESGGGLVQAGGSLRLSCAASGSISGYNAMGWYRQAPGKERELVAAISWAGGITRYADSVKGRFTISRDNAKNPVYLQMNSLKPEDTAVYYCAADQTYERHWVYYWGQGTQVTVSS” was “low polyreactivity”.

Turning to “QVQLVESGGGLVQAGGSLRLSCAASGSISGYNAMGWYRQAPGKESELVAVITTDGSTNYADSEKGRFTISRDNAKNTVYLQMNSLKPEDTAVYYCNTDDGWRLLWEYDYWGQGTQVTVSS”, the “polyreactivity (PSR sort gate)” value was “low polyreactivity”. The same measure for “QVQLVESGGGLVQAGGSLRLSCAASGSISGYYAMGWYRQAPGKERDLVASIRYTGARTYYADSVKGRFTISRDNAKNTVYVQMNSLKPEDTAVYYCAADVKRERVWGGDYWGLGTQVTVSS”: “low polyreactivity”; for “QVQLVESGGGLVQAGGSLRLSCAASGSISGYYAMGWYRQAPGKERELVASIRYTGARTYYADSVKGRFTISRDNAKNTVYLQMNSLKPEDTAVYYGAADVKRDRVWGGDYWGQGTQVTVSS”: “low polyreactivity”. “QVQLVESGGGLVQAGGSLRLSCAASGSISHLYTMGCYRQSPGKERELVAAIRYSGGRTDYADSVKGRFTISRDNAKNTVYLQMNSLKPEDTAVYYCAAGRSFRGSYWYEYWGQGTQVTVSS”: the “polyreactivity (PSR sort gate)” value is listed as “high polyreactivity”.

In the case of “QVQLVESGGGLVQAGGSLRLSCAASGSISNRYAMGWYRQAPGKERELVAAISTGGGTTYYADSVKGRFTISRDNAKNTVYLQMNSLKPEDTAVYYCAADDWRYYRELDYWGQGTQVTVSS”, the “polyreactivity (PSR sort gate)” value is on record as “low polyreactivity”.

Consider “QVQLVESGGGLVQAGGSLRLSCAASGSISSGYTMGWYRQAPGKERELVASIRSGGSTYYADSVKGRFTISRDNAKNTVYLQMNSLKPEDTAVYYCAARFFYRYSWGRTRGYDYWGQGTQVTVSS”, for which the “polyreactivity (PSR sort gate)” value is recorded as “high polyreactivity”.

“QVQLVESGGGLVQAGGSLRLSCAASGSISSVNVMGWYRQAPGKERELVAAISSGTSTHYADSVKGRFTISRDNAKNTVYLQMNSLKPEVTAVYYCNKTSFLVKLDYWGQGTQVTVSS”: the “polyreactivity (PSR sort gate)” value was “low polyreactivity”.

With “QVQLVESGGGLVQAGGSLRLSCAASGSISTNYAMGWSRQAPGKERELVAAISSSGGSTYYADSVKGRFTISRDNAKNTVYLQMNSLKPEDTAVYYCRYKFGYWGQGTQVTVSS”, the “polyreactivity (PSR sort gate)” value is “high polyreactivity”. The same measure for “QVQLVESGGGLVQAGGSLRLSCAASGSISVRNVMGWYRQAPGKERELVATIRRPGGSTSYADSVKGRFTISRDNAKNTVYLQMNSLKPEDTAVYYCAAVGYTTYRRYDYWGQGTQVTVSS”: “low polyreactivity”. The value for “QVQLVESGGGLVQAGGSLRLSCAASGSISVVNMGWYRQAPGKERELVASITSSGSTTYADSVKGRFTISRDNAKNTVYLQMNSLKPEDTAVYYCAAVRCRSQPYWYHSMDHWGQGTQVTVSS” was “low polyreactivity”. Take “QVQLVESGGGLVQAGGSLRLSCAASGSISVWYVMGWYRPAPGTERELVAAITRSGGSTFYADSVKGRFTISRDNAKNTVYLQMNSLKPEDTAVYYCAADGGVAWGYGYWGQGTQVTVSS”: the “polyreactivity (PSR sort gate)” value was “low polyreactivity”. The value for “QVQLVESGGGLVQAGGSLRLSCAASGSISVYNAMGWYRQAPGKERELVAAISWSGGRTSYADSVKGRFTISRDNAKNTVYLQMNSLKPEDTAVYYCAADELTVLWDEDYWGQGTQVTVSS” was “low polyreactivity”.

In the case of “QVQLVESGGGLVQAGGSLRLSCAASGSISYPYDMGWYRQAPGKDRELVAAISGSGGRTYYADSLKGRFTLSRDTAKNTVYLQMNSLKPEVTAVYYCAAERGAYRGVTFTYGYWGQGTQVTVSS”, the “polyreactivity (PSR sort gate)” value is on record as “high polyreactivity”.
